Reference: patent US20060002969A1

Target: human matrix metalloproteinase-9 (MMP-9) (human) (UniProt P14780)
Assay: cell-based or functional assay

UniProt P14780, sequence (P14780 107-707 Q279R/R574P limits assumed): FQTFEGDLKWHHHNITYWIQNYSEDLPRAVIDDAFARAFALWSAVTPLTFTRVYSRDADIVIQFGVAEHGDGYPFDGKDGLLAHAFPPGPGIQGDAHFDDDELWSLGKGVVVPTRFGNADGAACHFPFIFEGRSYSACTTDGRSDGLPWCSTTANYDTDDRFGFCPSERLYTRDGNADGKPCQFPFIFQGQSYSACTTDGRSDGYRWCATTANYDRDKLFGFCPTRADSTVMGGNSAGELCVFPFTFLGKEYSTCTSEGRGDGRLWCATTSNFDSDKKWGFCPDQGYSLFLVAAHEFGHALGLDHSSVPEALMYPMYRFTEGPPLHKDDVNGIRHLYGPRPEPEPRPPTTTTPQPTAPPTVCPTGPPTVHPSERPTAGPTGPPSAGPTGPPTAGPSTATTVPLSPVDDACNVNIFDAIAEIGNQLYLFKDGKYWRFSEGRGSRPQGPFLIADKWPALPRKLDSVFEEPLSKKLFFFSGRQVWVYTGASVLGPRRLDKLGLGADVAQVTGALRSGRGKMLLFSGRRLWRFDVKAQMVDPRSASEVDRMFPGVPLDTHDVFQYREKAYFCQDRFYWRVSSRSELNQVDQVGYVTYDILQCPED

- FBGC formation from human monocytes induced with IL-4 and GM-CSF (FBGC/high power field) (FBGC/high power field): 3.7
- fraction of cells fused: 9.8%
Substance: anti-human MMP-9 monoclonal antibody (raised in mouse) obtained from Chemicon International (catalog number MAB13415)
